Experimental data reported in paper PMC5397608 (Journal of Molecular Biology, 2017).
Changes are numbered by the printed parent chain. In names and notes the source's numbering stands.

Biological target: T1, recombinant human Vascular Endothelial Growth Factor a (Homo sapiens, UniProt P15692-4, fluorescently labeled with Alexa-647)
T1 construct: human VEGFa, UniProt ID P15692, aa 27-191 as printed; the isoform is my reading of the limits 27-191; also called rhVEGFa; recombinant human VEGFa; source: recombinant
Experiment: MST; Alexa-647-labelled rhVEGFa constant at 1 nM in solution, mAb2 WT or variants in varying concentrations; 295 K; 25 mM sodium citrate pH 6.0, 125 mM NaCl, 0.05% Tween 20; triplicates; NanoTemper Monolith NT.115
Settings: both partners purified

T1 sequence (P15692 other isoform, or with tags, fused parts or gaps): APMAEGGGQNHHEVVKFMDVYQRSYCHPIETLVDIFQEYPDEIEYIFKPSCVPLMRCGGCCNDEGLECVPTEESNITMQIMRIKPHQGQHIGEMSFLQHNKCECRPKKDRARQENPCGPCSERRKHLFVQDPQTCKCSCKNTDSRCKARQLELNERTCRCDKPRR

B1: mAb2_SL50K (antibody, V domains shown)
VH: EVQLVESGGGLVQPGGSLRLSCAASGFTISDYWIHWVRQAPGKGLEWVAGITPAGGYTYYADSVKGRFTISADTSKNTAYLQMNSLRAEDTAVYYCARFVFFLPYAMDYWGQGTLVTVSS
VL: DIQMTQSPSSLSASVGDRVTITCRASQDVSTAVAWYQQKPGKAPKLLIYKASFLYSGVPSRFSGSGSGTDFTLTISSLQPEDFATYYCQQSYTTPPTFGQGTKVEIK
notes: as the heavy chain variable region of m1 (PDB 2FJF); constant regions of an IgG1 isotype, already in the expression vector; as the light chain variable region of m1 (PDB 2FJF), with the stated change; light chain constant region from the expression vector; IgG1; also called S50K in the light chain; source: CHO K1, transiently transfected, purified (protein A)
B1 was tested. Which Kd did it give?
The Kd was 8.3 ± 1.4 nM.

B2: mAb2_SL50D (antibody, V domains shown)
VH: B1 VH
VL: B1 VL with K50D
notes: as the heavy chain variable region of m1 (PDB 2FJF); constant regions of an IgG1 isotype, already in the expression vector; as the light chain variable region of m1 (PDB 2FJF), with the stated change; light chain constant region from the expression vector; IgG1; source: CHO K1, transiently transfected, purified (protein A)
How did the Kd turn out when B2 was run?
Its Kd is 4.4 ± 1.3 nM.

B3: mAb2_SL50K_SH21R_SH85R (antibody, V domains shown)
VH: B1 VH with S21R, S85R
VL: B1 VL
notes: as the heavy chain variable region of m1 (PDB 2FJF), with the stated changes; constant regions of an IgG1 isotype, already in the expression vector; as the light chain variable region of m1 (PDB 2FJF), with the stated change; light chain constant region from the expression vector; IgG1; also called Variant 7; source: CHO K1, transiently transfected, purified (protein A)
How did the Kd turn out when B3 was run?
The Kd was 57.1 ± 6.2 nM.

B4: mAb2_VH100R (antibody, V domains shown)
VH: B1 VH with V100R
VL: B1 VL with K50S
notes: as the heavy chain variable region of m1 (PDB 2FJF), with the stated change; constant regions of an IgG1 isotype, already in the expression vector; as the light chain variable region of m1 (PDB 2FJF); light chain constant region from the expression vector; IgG1; source: CHO K1, transiently transfected, purified (protein A)
Does B4 bind?
Result: no binding

B5: mAb2_FH101P (antibody, V domains shown)
VH: B1 VH with F101P
VL: B1 VL with K50S
notes: as for B4
Does B5 bind?
Result: no binding

B6: mAb2_SL50K_FH101P (antibody, V domains shown)
VH: B1 VH with F101P
VL: B1 VL
notes: as the heavy chain variable region of m1 (PDB 2FJF), with the stated change; constant regions of an IgG1 isotype, already in the expression vector; as the light chain variable region of m1 (PDB 2FJF), with the stated change; light chain constant region from the expression vector; IgG1; also called mAb2 FH101P SL50K; variant 8; source: CHO K1, transiently transfected, purified (protein A)
Does B6 bind?
Result: no binding

B7: mAb2_SL50K_SH21R_SH85R_FH101P (antibody, V domains shown)
VH: B1 VH with S21R, S85R, F101P
VL: B1 VL
notes: as the heavy chain variable region of m1 (PDB 2FJF), with the stated changes; constant regions of an IgG1 isotype, already in the expression vector; as the light chain variable region of m1 (PDB 2FJF), with the stated change; light chain constant region from the expression vector; IgG1; also called mAb2 FH101P SL50K SH21R SH85R; source: CHO K1, transiently transfected, purified (protein A)
Does B7 bind?
Result: no binding

B8: mAb2_SL52R_FH101P (antibody, V domains shown)
VH: B1 VH with F101P
VL: B1 VL with K50S, S52R
notes: as the heavy chain variable region of m1 (PDB 2FJF), with the stated change; constant regions of an IgG1 isotype, already in the expression vector; as the light chain variable region of m1 (PDB 2FJF), with the stated change; light chain constant region from the expression vector; IgG1; also called mAb2 FH101P SL52R; source: CHO K1, transiently transfected, purified (protein A)
Does B8 bind?
Result: no binding

B9: mAb2_SL52R_SH21R_SH85R_FH101P (antibody, V domains shown)
VH: B1 VH with S21R, S85R, F101P
VL: B1 VL with K50S, S52R
notes: as the heavy chain variable region of m1 (PDB 2FJF), with the stated changes; constant regions of an IgG1 isotype, already in the expression vector; as the light chain variable region of m1 (PDB 2FJF), with the stated change; light chain constant region from the expression vector; IgG1; also called mAb2 FH101P SL52R SH21R SH85R; source: CHO K1, transiently transfected, purified (protein A)
Does B9 bind?
Result: no binding
